{"source": "patent US20040022780A1", "about": "“Serine protease and topical retinoid compositions useful for treatment of acne vulgarise and production of anti-aging effects” (priority 1997, published 2004)", "molecules": {"B1": {"name": "trypsin (protein, UniProt P00760 24-246, looked up)", "Serine protease 1": "IVGGYTCGANTVPYQVSLNSGYHFCGGSLINSQWVVSAAHCYKSGIQVRLGEDNINVVEGNEQFISASKSIVHPSYNSNTLNNDIMLIKLKSAASLNSRVASISLPTSCASAGTQCLISGWGNTKSSGTSYPDVLKCLKAPILSDSSCKSAYPGQITSNMFCAGYLEGGKDSCQGDSGGPVVCSGKLQGIVSWGSGCAQKNKPGVYTKVCNYVSWIKQTIASN", "notes": "lyophilyzed trypsin from Sigma-Aldrich, a serine protease, in Hepes buffer mixed with GDL liposomes"}}, "key": {"Transglutaminase mRNA": {"tested_on": "Transglutaminase mRNA", "assay": "RT-PCR gene expression in skin, transglutaminase", "format": "in vivo, Rhino mouse", "settings": "increasing concentrations of trypsin (0.0001-0.01% (w/v)) daily for five days", "description": "Rhino mice of Example 1 were treated daily with trypsin compositions (0% (w/v), 0.0001% (w/v), 0.001% (w/v), and 0.01% (w/v)), as prepared in Example 2, for five days and sacrificed at day eight. The skins of vehicle treated mice and trypsin-treated mice were obtained as described in Example 3, then their total RNAs were extracted using “RNA Stat-60” reagent available from Tel-Test “B,” Inc. as described in Chomczymski, “Single Step Method of RNA Isolation By Acid Guanidinium Thiocyanate-phenol-chloroform extraction,” 162 Anal. Biochem. 156-59 (1987) which is incorporated herein by reference in its entirety. A sufficient amount of RNase-free DNase available from Promega, Corp. under the tradename “RQ1 RNase-free DNase” was then added to the extracted RNA from each mouse such that each respective product contained 200 ng of DNased-RNA using the procedure set forth in “RNase-free DNase” protocol published by Promega, Corp. (May, 1995). […]\nThe PCR products were then analyzed on 2% agarose/ethidium bromide gels according to methods well-known in the art in order to compare the level of expression of certain genes in skins of trypsin-treated and untreated mice. […]"}, "[1]": {"tested_on": "elastin fibers in Rhino mouse skin", "assay": "Elastin staining of paraffin skin sections, Rhino mouse", "format": "in vivo", "settings": "trypsin treated Rhino mice vs untreated", "source_text": "To further study this elasticity effect, skin sections of Rhino mice from Example 1 treated with the trypsin composition of Example 2 were stained for elastin on paraffin sections in accordance with the methods set forth in Kligman, L. H., “Luna's Technique, A Beautiful Stain for Elastin,” 3(2) The Amer. J. of Dermatopathol. 199-200 (1981) which is incorporated herein by reference in its entirety."}, "Rhino mouse skin [2]": {"tested_on": "Rhino mouse skin", "assay": "H&E histology of trypsin treated Rhino mouse skin", "format": "in vivo", "settings": "0.1% (w/v) trypsin in GDL liposomes daily for five days"}, "Rhino mouse skin [3]": {"tested_on": "Rhino mouse skin", "assay": "Transepidermal water loss (TEWL), evaporimeter on dorsal skin", "format": "in vivo", "settings": "for TEWL: topical once daily for five days", "source_text": "Rhino mice of Example 1 were topically treated with the trypsin compositions (0.001% (w/v)-1% (w/v)) of Example 2 once daily for five days. Animals were sacrificed at day 8 and image analysis was used to quantify the reduction in utriculi size. For image analysis, whole mount epidermis was processed and microscopic measurements were taken according to the methods described in Mezick as well as Bernerd et al., “The Rhino Mouse Model: The Effects of Topically Applied All-Trans Retinoic Acid and CD271 on the Fine Structure of the Epidermis and Urticuli Wall of Pseudocomedones,” 283(2) Arch. Dermatol. Res. 100-107 (1991) and Bouclier et al., “Quantification of Epidermal Histological Changes Induced by Topical Retinoids and CD271 in the Rhino Mouse Model Using a Standardizing Image Analysis Technique,” 4(2) Skin Pharmacol. 65-73 (1991) which are each incorporated herein by reference in their entirety. Empire Imagins Database version 1.1 was used on a Gateway 2000 P5-100 computer for capturing images. Image Pro Plus version 1.3 was used for measurements and Microsoft Excel version 5.0 for data processing. The mean utriculus diameter (μ) and the mean sebaceous gland size (μ^2) were calculated for each treatment group (3 Rhino mice), using 5 random fields, two measurements per field, per animal. Percent reduction in utriculi diameter was calculated in accordance with the methods described in Finley, D. J., “Parallel Line Assays, Statistical Method in Biological Assay,” Charles Griffen & Company Ltd. 69-104 (1978) which is incorporated herein by reference in its entirety.\nTo further characterize the effect of trypsin on the Rhino mouse skin, we measured the transepidermal water loss (“TEWL”) using an “Evaporimeter EPI” evaporimeter available from Servomed AB by first normalizing the evaporimeter with the ambient humidity and then placing the probe on the dorsal skin of the test subject at which point a reading of TEWL was taken."}}, "data": [{"molecule": "B1", "values": [{"measurement": "Transglutaminase mRNA level", "setting": "Transglutaminase mRNA", "result": "reduced to below detection level"}, {"measurement": "elastin fibers around the utriculi and the sebaceous glands", "setting": "[1]", "result": "increased in thickness and density"}, {"measurement": "inflammatory cells in skin histology", "setting": "Rhino mouse skin [2]", "result": "no inflammatory cells"}, {"measurement": "epidermis histology (H&E)", "setting": "Rhino mouse skin [2]; vs untreated", "result": "hyperplastic with an increase in the number of cell layers"}, {"measurement": "TEWL", "setting": "Rhino mouse skin [3]; Trypsin 0.001% (w/v)", "result": "29.53 ± 3.68", "unit": "g/m^2h"}, {"measurement": "TEWL", "setting": "Rhino mouse skin [3]; Trypsin 0.005% (w/v)", "result": "26.40 ± 1.77", "unit": "g/m^2h"}, {"measurement": "TEWL", "setting": "Rhino mouse skin [3]; Trypsin 0.01% (w/v)", "result": "28.53 ± 2.18", "unit": "g/m^2h"}, {"measurement": "TEWL", "setting": "Rhino mouse skin [3]; Trypsin 0.05% (w/v)", "result": "36.57 ± 2.07", "unit": "g/m^2h"}, {"measurement": "TEWL", "setting": "Rhino mouse skin [3]; Trypsin 0.1% (w/v)", "result": "42.80 ± 4.33", "unit": "g/m^2h"}, {"measurement": "TEWL", "setting": "Rhino mouse skin [3]; Trypsin 0.5% (w/v)", "result": "36.23 ± 1.24", "unit": "g/m^2h"}, {"measurement": "TEWL", "setting": "Rhino mouse skin [3]; Trypsin 1.0% (w/v)", "result": "42.00 ± 1.14", "unit": "g/m^2h"}, {"measurement": "trypsin concentration at which TEWL increase reached a plateau", "setting": "Rhino mouse skin [3]; once daily for five days", "result": "~0.05 % (w/v)"}, {"measurement": "TEWL compared with retinoid treatment given alone", "setting": "Rhino mouse skin [3]; trypsin treated mice", "result": "lower than that for retinoid treatment given alone"}]}]}
